# Marks after values point to notes of the source that are not given here.
# How the values were obtained:
# [1] = system: MFc7 mouse renal myofibroblasts; assay: Alkaline phosphatase stimulation in MFc7 cells; format: cell-based; conditions: 1 μg/ml pro-BMP7, 1 μM ATRA, 48 hours
# Description: 3T3-L1 fibroblasts and MFc7 mouse renal myofibroblasts may be grown essentially as described in Example 2 above. After 48 hours the cells may be washed with PBS prior to the addition of either DMEM/2% dialyzed FBS or OPTI-MEM/2% dialyzed FBS medium containing control vehicle, 1 μg/ml human proBMP7 protein, 1 μM ATRA or a combination of both human BMP7 protein (1 μg/ml) and ATRA (1 μM) may be added for 48 hours. After treatment the cells may be rinsed with PBS and stored at −80° C. for approximately 20 minutes. The cells may be thawed at 37° C. for 30 minutes and 100 μl of PNPP may be added to every well. The plate may be incubated at 37° C. for 1 hour. The absorbance at 405 nm may be read on a plate reader.
# RAR gamma = RAR gamma protein expression, Western Blot; format: cell-based, mouse; conditions: MFc7 and 3T3-L1 cell lines; 1 μg/mL, 48 hours; Western Blot intensity
# Description: 3T3-L1 fibroblasts and MFc7 mouse renal myofibroblasts may be maintained under routine cell culture conditions in DMEM/10% calf serum medium or OPTI-MEM/10% FBS medium, respectively. The cells may be plated in 10 cm tissue culture plates at a seeding density of 500,000 cells/plate. After 48 hours, the cells may be washed with PBS prior to the addition of either DMEM/2% dialyzed FBS or OPTI-MEM/2% dialyzed FBS medium containing 1 μg/mL human BMP7 protein or 1 μg/mL of a human BMP7 protein variant. The cells may be incubated for 48 hours and then rinsed with ice-cold PBS, and then lysed with Protein Extraction Reagent. Then lysates may be centrifuged at 14,000×g for 15 minutes. A Bradford protein assay may be performed to determine the protein concentration of each lysate. Equivalent amounts of protein (for example, 25 μg) may be resolved by SDS-PAGE and then transferred to nitrocellulose membranes for Western Blot analysis. The membranes may be probed with an anti-RAR alpha antibody and/or an anti-RAR gamma antibody.
# [2] = system: monosodium iodoacetate (MIA)-induced rat model of OA pain; assay: MIA rat model of osteoarthritic pain; format: in vivo
# Description: The effect of human mature BMP7 protein variant F9 (SEQ ID NO: 8) may be evaluated in the monosodium iodoacetate (MIA)-induced rat model of OA pain (Bove, et. al., Osteoarthritis and Cartilage, 2003, 11: 821-830).
# Briefly stated, male Lewis rats aged 7-8 weeks at the time of MIA injection may be used for this study. For induction of osteoarthritis, the rats may be anesthesized with isoflurane and given a single intra-articular injection of 0.3 mg/50 μl MIA through the infrapatellar ligament of the right knee. The left contralateral control knee may be injected with 50 μl sterile saline. The animals are treated with wild type human mature BMP7 protein at a dose of 1.0 μg/knee and human mature BMP7 protein variant F9 (SEQ ID NO: 8) at 0.175 μg and 0.7 μg/knee via intra-articular injections on day 9 and 14 post-MIA.
# Pain measurements may be made by incapacitance testing on days 17, 24, 31, 38, 45, 52, 58, and 66 post-MIA injection using an incapacitance tester (Columbus Instruments International, Columbus, Ohio). Changes in hind paw weight distribution between the osteoarthritic (right) and contralateral control (left) limb may be utilized as an index of joint discomfort (measure of pain) in the osteoarthritic knee. Results may be presented as the difference in weight bearing between the contralateral control (left) and the osteoarthritic (right).
# DLD1 C5 tumor xenografts = assay: DLD1 C5 mouse xenograft tumor model; format: in vivo; conditions: F9 IP 0.04 mg/kg MWF for 3 weeks followed by 3 weeks irinotecan 20 mg/kg M and Th
# Description: Female athymic nude mice age 6- to 7-weeks old are available commercially, including from Harlan Laboratories (Indianapolis, Ind.). The mice are allowed to acclimate for one week and fed ad libitum on a normal low fat (4.5%) diet, which may be continued for the duration of the study. Tumor cells are available for purchase from ATCC and may be cultured in cell culture media such as RPMI 1640 (Life Technologies) with L-glutamine, 25 mM HEPES supplemented with 10% FBS and 1 mM Na Pyruvate. Cells may be detached, washed with serum free medium and then resuspended at a final concentration of 50×10^6 cells/mL in serum free RPMI 1640. Tumor cells, approximately 5×106 may be injected subcutaneously in the rear flank of subject mice in a 1:1 mixture of serum free growth medium and Matrigel (Becton Dickinson, Bedford, Mass.). Tumor and body weight measurements may be performed twice weekly. Prior to treatment, mice can be randomized based on tumor size using a randomization algorithm. Treatments may be started when the average tumor volume reaches 100 mm3. […]
# All test or control proteins are prepared in phosphate Buffered Saline (PBS) prior to dose. Tumor size may be determined by caliper measurements. […] Log volume data can be analyzed with two-way repeated measures ANOVA by time and treatment using SAS PROC MIXED software (SAS Institutes Inc, Cary, N.C.). […]
molecule,measurement,setting,value
Wild type human pro-BMP7: homodimers of wild type human mature BMP7 in a non-covalent complex with wild type human pro-domain [reference compound],fold change in alkaline phosphatase stimulation relative to control vehicle treated cells,[1],21 fold
"Human mature BMP7 protein variant F9 (SEQ ID NO: 8): homodimer wherein each monomeric subunit has SEQ ID NO: 8 (Y65G/I86L/F93V/N110G/Y128W), disulfide linked (protein, homodimer, disulfide linked) STGSKQRSQNRSKTPKNQEALRMANVAENSSSDQRQACKKHELYVSFRDLGWQDWIIAPEGYAAGYCEGECAFPLNSYMNATNHALVQTLVHVINPETVPKPCCAPTQLGAISVLYFDDSSNVILKKWRNMVVRACGCH",RAR gamma protein expression,RAR gamma,stimulated
same,Difference in hind paw weight bearing,"[2]; 0.175 μg/knee intra-articular day 9 and 14, Day 17 post-MIA",23.29 ± 1.31 g
same,Difference in hind paw weight bearing,"[2]; 0.175 μg/knee, Day 24",24.32 ± 2.97 g
same,Difference in hind paw weight bearing,"[2]; 0.175 μg/knee, Day 31",21.87 ± 2.14 g
same,Difference in hind paw weight bearing,"[2]; 0.175 μg/knee, Day 38",20.82 ± 1.03^b g
same,Difference in hind paw weight bearing,"[2]; 0.175 μg/knee, Day 45",19.44 ± 0.80 g
same,Difference in hind paw weight bearing,"[2]; 0.175 μg/knee, Day 52",19.35 ± 0.77 ^b g
same,Difference in hind paw weight bearing,"[2]; 0.175 μg/knee, Day 58",17.42 ± 3.16^b g
same,Difference in hind paw weight bearing,"[2]; 0.175 μg/knee, Day 66",15.00 ± 1.84^b g
same,Difference in hind paw weight bearing,"[2]; 0.7 μg/knee intra-articular day 9 and 14, Day 17 post-MIA",36.75 ± 6.45^b g
same,Difference in hind paw weight bearing,"[2]; 0.7 μg/knee, Day 24",29.78 ± 8.39 g
same,Difference in hind paw weight bearing,"[2]; 0.7 μg/knee, Day 31",26.62 ± 6.07 g
same,Difference in hind paw weight bearing,"[2]; 0.7 μg/knee, Day 38",23.63 ± 0.90 g
same,Difference in hind paw weight bearing,"[2]; 0.7 μg/knee, Day 45",21.75 ± 4.34 g
same,Difference in hind paw weight bearing,"[2]; 0.7 μg/knee, Day 52",20.51 ± 3.03 g
same,Difference in hind paw weight bearing,"[2]; 0.7 μg/knee, Day 58",16.72 ± 0.79^b g
same,Difference in hind paw weight bearing,"[2]; 0.7 μg/knee, Day 66",13.06 ± 1.78^b g
same,tumor response,DLD1 C5 tumor xenografts,tumor regression
"Wild type human mature BMP7 (SEQ ID NO: 2): dimer of two glycosylated, 139 amino acid disulfide-linked proteins of about 35 kDa, SEQ ID NO: 2 (protein, listed as Homo sapiens, disulfide-linked glycosylated homodimer) STGSKQRSQNRSKTPKNQEALRMANVAENSSSDQRQACKKHELYVSFRDLGWQDWIIAPEGYAAYYCEGECAFPLNSYMNATNHAIVQTLVHFINPETVPKPCCAPTQLNAISVLYFDDSSNVILKKYRNMVVRACGCH",Difference in hind paw weight bearing,"[2]; 1.0 μg/knee intra-articular day 9 and 14, Day 17 post-MIA",27.52 ± 2.81 g
same,Difference in hind paw weight bearing,"[2]; 1.0 μg/knee, Day 24",26.05 ± 2.81 g
same,Difference in hind paw weight bearing,"[2]; 1.0 μg/knee, Day 31",23.46 ± 1.23 g
same,Difference in hind paw weight bearing,"[2]; 1.0 μg/knee, Day 38",22.68 ± 0.61 g
same,Difference in hind paw weight bearing,"[2]; 1.0 μg/knee, Day 45",20.95 ± 0.87 g
same,Difference in hind paw weight bearing,"[2]; 1.0 μg/knee, Day 52",20.37 ± 0.71 g
same,Difference in hind paw weight bearing,"[2]; 1.0 μg/knee, Day 58",17.66 ± 1.79^b g
same,Difference in hind paw weight bearing,"[2]; 1.0 μg/knee, Day 66",17.59 ± 2.68^b g

# — patent US11466066B2, “Variants of human BMP7 protein” (ELI LILLY AND COMPANY, priority 2017, dated 2022)
